From patent US20260116920A1 (PEPTIDREAM, published 2026) come the findings set out here.

The target of this test is T1, human transferrin receptor (hTfR) (human, UniProt P02786 89-760).
T1 construct: used as 0.5 uM hTfR dimer solution, immobilised on an NTA sensor chip (Ni capture plus EDC/NHS coupling); also called human TfR; TfR1
In words: SPR; B = KD 1-100 nM. Here is the method: NTA sensor chip (Global Life Sciences Technologies Japan K.K.) was inserted into BiacoreT200 (Global Life Sciences Technologies Japan K.K.), then the priming operation was performed three times by using running buffer containing: 10 mM HEPES pH 8.0 (Nacalai Tesque, Inc.), 150 mM NaCl (Nacalai Tesque, Inc.), 0.05% Tween 20 (Nacalai Tesque, Inc.), 0.1% BSA (SIGMA-ALDRICH) and 1.0% DMSO (FUJIFILM Wako Pure Chemical Corporation), and equilibrated at a flow rate of 30 μL/min. 350 mM EDTA solution was reacted at a flow rate of 10 μL/min for 60 seconds, 0.5 mM […] solution (Kishida Chemical Co., Ltd.) was reacted at a flow rate of 10 μL/min for 60 seconds, and then the NTA sensor chip was washed with 3 mM EDTA solution (Nacalai Tesque, Inc.) at a flow rate of 10 μL/min for 60 seconds. After mixing 50 μL each of 60 mM EDC solution (Global Life Science Technologies Japan K.K.) and 650 mM NHS solution (Global Life Science Technologies Japan K.K.), the reaction was carried out at a flow rate of 10 μL/min for 420 seconds. 150 μL of 0.5 μM hTfR dimer solution was prepared by dilution with running buffer and reacted at a flow rate of 10 μL/min for 300 seconds to immobilize hTfR on the NTA sensor chip. For the human transferrin receptor (hTfR), recombinant hTfR described in Example 2 of WO2018/124121 was used. After immobilization, capping was performed by reacting with 1.0 M ethanolamine solution (Global Life Sciences Technologies Japan K.K.) at a flow rate of 10 μL/min for 420 seconds. Peptide lysate prepared in DMSO solution to 10 mM was diluted with running buffer to be a final concentration of 10 μM peptide lysate, then peptide solutions of 100 nM, 50 nM, 25 nM, 10 nM, and 5 nM were prepared. Using the above samples, the kinetics of the peptide against hTfR was obtained by SPR measurement.
The kinetic evaluation model was single-cycle kinetics, and curve fitting was performed using Biacore T200 Evaluation Software Version 3.0 (Global Life Science Technologies Japan K.K.). The binding of the peptide to hTfR was evaluated by performing curve fitting on the obtained sensorgram by least squares method and obtaining the KD value.
Background: Surface plasmon resonance follows binding to a sensor surface in real time, without labels.

Starred links: 1 amine or outer side, 2 acyl side, 3 side chain; linkers in the order of their positions; H or OH if unused. Positions of bridges follow the written chain, without caps; N, C: chain ends. Non-standard residues stand in square brackets, D forms with d. Primed or numbered codes have the meaning given here. No end group written: not given here. *: point of attachment. MeF3COO(PEG4Me) = (S)-3-(3-((2,5,8,11-tetraoxatridecan-13-yl)carbamoyl)phenyl)-2-(methylamino)propanoic acid, COCCOCCOCCOCCNC(=O)c1cccc(C[C@@H](C(=O)[*:2])N(C)[*:1])c1; MeF4COO(PEG4Me)″ = N-methyl-4-carboxy-Phe with the carboxyl amidated by a methyl-capped PEG4 amine, COCCOCCOCCOCCNC(=O)c1ccc(C[C@@H](C(=O)[*:2])N(C)[*:1])cc1; F3COO(PEG4Me) = (S)-3-(3-((2,5,8,11-tetraoxatridecan-13-yl)carbamoyl)phenyl)-2-aminopropanoic acid, COCCOCCOCCOCCNC(=O)c1cccc(C[C@H](N[*:1])C(=O)[*:2])c1; F3COO(PEG4Me)″ = 3-carboxy-Phe with the carboxyl amidated by a methyl-capped PEG4 amine, COCCOCCOCCOCCNC(=O)c1cccc(C[C@H](N[*:1])C(=O)[*:2])c1; E(PEG4Me) = (S)-18-amino-15-oxo-2,5,8,11-tetraoxa-14-azanonadecane-19-oic acid, COCCOCCOCCOCCNC(=O)CC[C@H](N[*:1])C(=O)[*:2]; MeF4COO(PEG4Me) = N-methyl Phe with 4-carboxamide to PEG4Me amine, COCCOCCOCCOCCNC(=O)c1ccc(C[C@@H](C(=O)[*:2])N(C)[*:1])cc1; KCOpipzaa = N6-(4-(carboxymethyl)piperazine-1-carbonyl)-L-lysine, O=C(NCCCC[C@H](N[*:1])C(=O)[*:2])N1CCN(CC(=O)[*:3])CC1; Phe(4-OMe)(3) = (S)-2-amino-3-(4-methoxyphenyl)propanoic acid (source code F4OMe), COc1ccc(C[C@H](N[*:1])C(=O)[*:2])cc1; F4aao = (S)-2-amino-3-(4-(carboxymethoxy)phenyl)propanoic acid, O=C([C@H](Cc1ccc(OCC(=O)[*:3])cc1)N[*:1])[*:2]; MePEG4c = K(MePEG4c) = (S)-20-amino-14-oxo-2,5,8,11-tetraoxa-15-azahenicosane-21-oic acid, COCCOCCOCCOCCC(=O)*; Trp(1-CH2CO) = O=C([C@H](Cc1cn(CC(=O)[*:3])c2ccccc12)N[*:1])[*:2]; MeF3COO(PEG4Me)″ = N-methyl analogue of F3COO(PEG4Me); Trp(5-Cl) = N[C@@H](Cc1c[nH]c2ccc(Cl)cc12)C(=O)O; Nle(6-morpholino) = N[C@@H](CCCCN1CCOCC1)C(=O)O; Trp(7-aza) = N[C@@H](Cc1c[nH]c2ncccc12)C(=O)O; NMePhe(3-Cl) = CN[C@@H](Cc1cccc(Cl)c1)C(=O)O; NMePhe(4-F) = CN[C@@H](Cc1ccc(F)cc1)C(=O)O; 3Pal(6-NH2) = Nc1ccc(C[C@H](N)C(=O)O)cn1; NMeW = CN[C@@H](Cc1c[nH]c2ccccc12)C(=O)O; NMeY = CN[C@@H](Cc1ccc(O)cc1)C(=O)O; Lys(Me2) = CN(C)CCCC[C@H](N)C(=O)O; NMeR = CN[C@@H](CCCNC(=N)N)C(=O)O; NMeF = CN[C@@H](Cc1ccccc1)C(=O)O; 4Pal = N[C@@H](Cc1ccncc1)C(=O)O

T1 sequence (P02786 89-760 limits assumed): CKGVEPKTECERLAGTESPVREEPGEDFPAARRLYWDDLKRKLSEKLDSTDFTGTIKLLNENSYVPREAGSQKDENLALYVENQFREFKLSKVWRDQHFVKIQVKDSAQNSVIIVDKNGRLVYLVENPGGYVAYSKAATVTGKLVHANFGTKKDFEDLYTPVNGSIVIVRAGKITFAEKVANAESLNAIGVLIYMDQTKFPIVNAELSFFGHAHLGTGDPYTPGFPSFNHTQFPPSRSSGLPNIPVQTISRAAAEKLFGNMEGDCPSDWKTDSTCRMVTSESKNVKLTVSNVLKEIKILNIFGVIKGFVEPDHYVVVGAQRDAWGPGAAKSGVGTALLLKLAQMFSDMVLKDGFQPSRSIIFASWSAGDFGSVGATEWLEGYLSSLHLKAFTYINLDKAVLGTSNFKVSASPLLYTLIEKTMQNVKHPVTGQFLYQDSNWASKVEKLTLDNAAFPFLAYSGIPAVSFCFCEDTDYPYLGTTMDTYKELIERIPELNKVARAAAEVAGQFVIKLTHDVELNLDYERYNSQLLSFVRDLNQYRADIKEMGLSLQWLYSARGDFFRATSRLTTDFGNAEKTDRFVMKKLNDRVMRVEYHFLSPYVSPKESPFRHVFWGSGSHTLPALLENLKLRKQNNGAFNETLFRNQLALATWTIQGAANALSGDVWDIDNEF

The KD is the constant that tells how readily two partners part at equilibrium. Lower therefore signals a tighter complex. {CH2CO}-AV[NMePhe(3-Cl)]VWNY[Phe(4-OMe)(3)]IIRRF[NMeY]C (thioether N-15; not fully specified (C-terminus)) [894_3149]: the KD was 1 to 100 nM.

B1: 894_0252 (peptide)
peptide: {CH2CO}-AV[NMeF]V[Trp(5-Cl)]NYYIIR[dR]FYC-NH2
modifications: thioether N-15; not fully specified (residue 14); also: linker PEG4c, place not given here
The molecule B1 showed a KD of 1 to 100 nM.

{CH2CO}-AV[NMePhe(3-Cl)]V[Trp(1-CH2CO)]NY[F4aao]II[E(PEG4Me)][KCOpipzaa]F[NMeY]C-NH2 (thioether N-15; also: linker PEG4c, place not given here) [849_0400] yielded a KD of 1 to 100 nM.

In the case of {CH2CO}-AV[NMePhe(4-F)]V[Trp(5-Cl)]NYYII[NMeR]K(MePEG4c)FYC-NH2 (thioether N-15; not fully specified (residue 14)) [894_0267], the dissociation constant (KD) is 1 to 100 nM.

In the case of {CH2CO}-AV[NMePhe(3-Cl)]VWNY[F4aao]IIQR[F3COO(PEG4Me)][MeF3COO(PEG4Me)″]C-NH2 (thioether N-15; also: linker G-ds-ds-ds-ds-ds, attachment site not given here) [849_0414], the KD fell in the range of 1 to 100 nM.

With {CH2CO}-AV[NMePhe(3-Cl)]V[Trp(1-CH2CO)]N[3Pal(6-NH2)][F4aao]II[E(PEG4Me)]R[4Pal][NMeY]C-NH2 (thioether N-15; also: linker PEG4c, place not given here) [849_0402], the dissociation constant (KD) lay within 1 to 100 nM.

B2: 894_0256 (peptide)
peptide: {CH2CO}-AV[NMePhe(4-F)]V[Trp(5-Cl)]NYYIIR[dR]FYC-NH2
modifications: thioether N-15; not fully specified (residue 14); also: linker PEG4c, place not given here
Take B2: the KD lay within 1 to 100 nM.

In the case of {CH2CO}-AV[NMePhe(3-Cl)]VWNY[F4aao]II[E(PEG4Me)]RF[NMeY]C-NH2 (thioether N-15; also: linker PEG4c, place not given here) [849_0398], the KD was 1 to 100 nM.

B3: 894_0260 (peptide)
peptide: {CH2CO}-AV[NMePhe(4-F)]V[NMeW]NYYIIR[dR]FYC-NH2
modifications: thioether N-15; not fully specified (residue 14); also: linker PEG4c, place not given here
With B3, the KD fell in the range of 1 to 100 nM.

With {CH2CO}-AV[NMePhe(3-Cl)]V[Trp(7-aza)]NY[F4aao]II[E(PEG4Me)]R[F3COO(PEG4Me)][NMeY]C-NH2 (thioether N-15; also: linker PEG4c, attachment site not given here) [849_0415], the KD lay within 1 to 100 nM.

As to {CH2CO}-AV[NMePhe(3-Cl)]VWNY[F4aao]II[E(PEG4Me)]KF[NMeY]C-NH2 (thioether N-15; also: linker PEG4c, attachment site not given here) [849_0406], the dissociation constant KD lay within 1 to 100 nM.

B4: 849_0418 (peptide)
peptide: {CH2CO}-AV[NMePhe(3-Cl)]V[Trp(7-aza)]NY[F4aao]IIERFYC-NH2
modifications: thioether N-15; not fully specified (residues 11, 14); also: linker PEG4c, place not given here
As to B4, the KD lay in the range of 1 to 100 nM.

For {CH2CO}-AV[NMePhe(3-Cl)]VWNY[F4aao]IIQR[F3COO(PEG4Me)″][MeF3COO(PEG4Me)]C-NH2 (thioether N-15; also: linker PEG4c, attachment site not given here) [849_0413], the KD is 1 to 100 nM.

In the case of {CH2CO}-AV[NMePhe(3-Cl)]VWNY[F4aao]II[E(PEG4Me)][Nle(6-morpholino)]F[NMeY]C-NH2 (thioether N-15; also: linker PEG4c, attachment site not given here) [849_0405], the KD was 1 to 100 nM.

{CH2CO}-AV[NMePhe(3-Cl)]VWNY[F4aao]IIQR[F3COO(PEG4Me)″][MeF4COO(PEG4Me)″]C-NH2 (thioether N-15; also: linker PEG4c, attachment site not given here) [849_0412]: the equilibrium dissociation constant (KD) lay within 1 to 100 nM.

With {CH2CO}-AV[NMePhe(3-Cl)]VWNY[F4aao]II[E(PEG4Me)][KCOpipzaa]F[NMeY]C-NH2 (thioether N-15; also: linker PEG4c, place not given here) [849_0401], the KD lay within 1 to 100 nM.

As to {CH2CO}-AV[NMePhe(3-Cl)]VWNY[F4aao]II[E(PEG4Me)]QF[NMeY]C-NH2 (thioether N-15; also: linker PEG4c, attachment site not given here) [849_0408], the KD is 1 to 100 nM.

Turning to {CH2CO}-AV[NMePhe(3-Cl)]V[Trp(7-aza)]NY[F4aao]IIQR[F3COO(PEG4Me)][MeF4COO(PEG4Me)]C-NH2 (thioether N-15; also: linker PEG4c, attachment site not given here, also called 894_0416) [849_0416], the KD lay in the range of 1 to 100 nM.

{CH2CO}-AV[NMeF]VWNYYIIRK(MePEG4c)FYC-NH2 (thioether N-15; not fully specified (residue 14)) [894_0264] came in with a KD of 1 to 100 nM.

In turn, {CH2CO}-AV[NMePhe(3-Cl)]VWNY[F4aao]II[E(PEG4Me)][Lys(Me2)]F[NMeY]C-NH2 (thioether N-15; also: linker PEG4c, attachment site not given here) [849_0407] came in with a KD of 1 to 100 nM.

{CH2CO}-AV[NMeF]VWNYYIIK(MePEG4c)RFYC-NH2 (thioether N-15; not fully specified (residue 14)) [894_0263] had a KD of 1 to 100 nM.

For the molecule {CH2CO}-AV[NMePhe(3-Cl)]VWNY[F4aao]II[E(PEG4Me)]R[E(PEG4Me)][NMeY]C-NH2 (thioether N-15; also: linker PEG4c, attachment site not given here) [849_0409], the KD lay within 1 to 100 nM.

{CH2CO}-AV[NMePhe(3-Cl)]VWNY[F4aao]II[E(PEG4Me)]R[E(PEG4Me)][NMeY]C-NH2 (thioether N-15; also: linker G-ds-ds-ds-ds-ds, attachment site not given here) [849_0410] had a KD of 1 to 100 nM.

Take {CH2CO}-AV[NMePhe(3-Cl)]VWN[3Pal(6-NH2)][F4aao]II[E(PEG4Me)][KCOpipzaa][4Pal][NMeY]C-NH2 (thioether N-15; also: linker PEG4c, attachment site not given here) [849_0403]: the KD fell in the range of 1 to 100 nM.

Consider {CH2CO}-AV[NMePhe(3-Cl)]V[Trp(7-aza)]NY[F4aao]IIQR[F3COO(PEG4Me)][MeF3COO(PEG4Me)″]C-NH2 (thioether N-15; also: linker PEG4c, place not given here) [849_0417], for which the dissociation constant (KD) was 1 to 100 nM.

The molecule {CH2CO}-AV[NMePhe(3-Cl)]VWNY[F4aao]II[E(PEG4Me)]R[F3COO(PEG4Me)″][NMeY]C-NH2 (thioether N-15; also: linker PEG4c, attachment site not given here) [849_0411] registered a KD of 1 to 100 nM.
